The text below walks through data of the nanobody polyreactivity screen of Harvey et al. (2022).

The nature of the data set: yeast display, Sf9 membrane polyspecificity reagent, FACS + sequencing; frameworks hold sequencing errors. In outline: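 After 36–48 hours of galactose induction, yeast (Saccharomyces cerevisiae BJ5465) displaying a synthetic nanobody library were stained at 4 °C for 1 hour with 10% biotinylated, detergent-solubilized Sf9 membrane reagent. Streptavidin microbeads enriched the stained cells before FACS sorting into low and high (top ~1%) gates on anti-HA and streptavidin fluorescence. Each clone's polyreactivity label reflects its gate of origin.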
As to “QVQLVESGGGLVQAGGSLRLSCAASGRTFYRYAMGWYRQAPGKERELVAVITSGSRTKYADSVKGRFTISRDNAKNTVYLQMNSLKPEDTAVYYCAARGLALEGKSSGEYWGQGTQVTVSS”, the “polyreactivity (PSR sort gate)” value is “high polyreactivity”.
With “QVQLVESGGGLVQAGGSLRLSCAASGRTFYRYAMGWYRQAPGKERELVAVITSGSRTKYADSVKGRFTISRDNAKNTVYLQMNSLKPEDTAVYYCAARVLALEGKSSGEYWGQGTQVTVSS” the entry was “high polyreactivity”; with “QVQLVESGGGLVQAGGSLRLSCAASGRTFYRYSMGWYRQAPGKERELVAGISTRGGSTYYADSVKGRFTISRDNAKNTVYLQMNSLKPEDTAVYYCAAAPLAFRYDYWGQGTHVTVSS”, “high polyreactivity”; with “QVQLVESGGGLVQAGGSLRLSCAASGRTFYRYVMGWYRQAPGKERELVAAISKSDGSTYYADSVKGRFTISRDNAKNSVYLQMNSLKPEDTAVYYCNARLSWSAFGYWGQGTQVTVSS”, “high polyreactivity”.
With “QVQLVESGGGLVQAGGSLRLSCAASGRTFYSNAMGWYRPAPGKERELVAAITFGGGSTYYADSVKGRFTISRDNAKNTVYVQMNSLKPEDTAVYYCAAEGYKYRFYYWGQGTQVTVSS” the entry was “low polyreactivity”.
On to “QVQLVESGGGLVQAGGSLRLSCAASGRTFYSNAMGWYRQAPGKETELVAAISNRGGSTYYADSLKGRFTISRDNAKNTVYLQMNSLKPEYTAVYYCARYPTKYGYWGQGTQVTVSS”, for which the “polyreactivity (PSR sort gate)” value is given as “high polyreactivity”.
With “QVQLVESGGGLVQAGGSLRLSCAASGRTFYSNARGWSRQAPGKERELVARISNGGSTHYADSVKGRFTISRDNAKNTVYLQMNSLKPEDTAVYYCNTDRGHFYTYPYTYYRLGYWGQGTQVTVSS”, the “polyreactivity (PSR sort gate)” value is reported as “low polyreactivity”.
With “QVQLVESGGGLVQAGGSLRLSCAASGRTFYSYAMGWYRQAPGKERELVAAISKRGTSTYYADSVKGRFTISRDNAKNTVYLQMNSLKPEDTAVYYCAAAYRGREVEYNCWGQGTQVTVSS” the entry was “high polyreactivity”; with “QVQLVESGGGLVQAGGSLRLSCAASGRTFYSYAMGWYRQAPGKERELVAAISRAGGTYYADSVKGRFTISRDNAKNTVYLQMNSLKPEDTAVYYCAARQAVYGLRSDFYYWGQGTQVTVSS”, “high polyreactivity”.
In the case of “QVQLVESGGGLVQAGGSLRLSCAASGRTFYSYAMGWYRQAPGKERELVAAISSSSGRTYYADSVKGRFTISRDNAKNTVYLQMNSLKPEDTAVYYCNRAGGYRTTFYSWGQGTQVTVSS”, the “polyreactivity (PSR sort gate)” value was “high polyreactivity”.
In the case of “QVQLVESGGGLVQAGGSLRLSCAASGRTFYSYAMGWYRQAPGKERELVASITSTGSTYYADSVKGRFTISRDNAKNTVYLQMNSLKPEDTAVYYCAARRQPRYSQRSTYYYWGQGTQVTVSS” it was “high polyreactivity”.
Consider “QVQLVESGGGLVQAGGSLRLSCAASGRTFYSYAMGWYRQAPGKEWVLVAAISKRGTSTYYADSVKGRFTISRDNAKNTVYLQMNTLKPEDTAVYYCAAAYRGREVEYTSWGQGTQVTVSS”, for which the “polyreactivity (PSR sort gate)” value is “high polyreactivity”.
For “QVQLVESGGGLVQAGGSLRLSCAASGRTFYSYAMVWYRQAPGKERELVAAISAGGSTYYADSVKGRFTSSRDNAMTTLYLQMNSLKPEDTAVYYCADTYSYYYVRYHYWGQGTQVTVSS”, the “polyreactivity (PSR sort gate)” value is on record as “high polyreactivity”.
Regarding “QVQLVESGGGLVQAGGSLRLSCAASGRTFYSYVMGWYRQSPGKERELVAAINNSGGGTYYADSVKGRFTISRDNAKNTVYLQMNSLKPEDTAVYYCNAVGGYWFDYWGQGTQVTVSS”, the “polyreactivity (PSR sort gate)” value is given as “high polyreactivity”.
With “QVQLVESGGGLVQAGGSLRLSCAASGRTFYTNAMGWYRQAPGKERELVAAIDGGGTTYYADSVKGRFTISRDNAKNTVYLQMNSLKPEDTAVYYCNADVFGLKQTAFDYWGQGTQVTVSS” the entry was “low polyreactivity”; with “QVQLVESGGGLVQAGGSLRLSCAASGRTFYTNAMGWYRQAPGKERELVAVISRGGTTYYADSVKGRFTISRDNAKYTVYFQMNSLKPEDTAVYYCAKQRPSGDSSSQLGSWGQGTQVTVSS”, “low polyreactivity”.
With “QVQLVESGGGLVQAGGSLRLSCAASGRTFYTVYAMGWYRQAPGKERELVAAITKDGTTTYYADSVKGRFTISRDNAKNTVYLQMNSLKPEDTAVYYCNADVCQPWGGGEYNYWGQGTQVTVSS” the entry was “high polyreactivity”; with “QVQLVESGGGLVQAGGSLRLSCAASGRTFYVNAMGWYRQAPGKEREFVATITRTGGDTYYADSVKGRFTISRDNAKNTVYLQMNSHKPEDTAVFYCNAEGYTVKYWYSRYDYWGQGTQVTVSS”, “high polyreactivity”.
With “QVQLVESGGGLVQAGGSLRLSCAASGRTFYVNAMGWYRQAPGKERELVAAIRYSDGRTYYADSVKGRFTISRDNAKNTVYLQMNSLKPEDTAVYYCAVGSRSWPYDYWGQGTQVTVSS” the entry was “high polyreactivity”; with “QVQLVESGGGLVQAGGSLRLSCAASGRTFYVYAMGWYRHAPGKERELVASIRRSGGITYYADSVKGRFTISRDNAKNTVYLQMNSLKPEDTAVYYCNARRGPGRREYDYWGQGTQVTLSS”, “high polyreactivity”; with “QVQLVESGGGLVQAGGSLRLSCAASGRTFYVYAMGWYRQAPGKERELVAAISQDDGGTYYADSVKGRFTISRDNAKNTVYLQMNSLKPEDTAVYYCAAKEWRYGYDYGYWGQGTQVTLSS”, “low polyreactivity”.
Consider “QVQLVESGGGLVQAGGSLRLSCAASGRTFYVYAMGWYRQAPGKERELVASISWIGDDTYYADSVKGRFTISRDNAKNTVYLQMNSLKPEDTAVYYCAVLVLGDYGYEYWGQGTQVTVSS”, for which the “polyreactivity (PSR sort gate)” value is given as “high polyreactivity”.
On to “QVQLVESGGGLVQAGGSLRLSCAASGRTFYVYDMGWYRQAPGKERELVAAISTNYADSVKGRFTISRDNAKNTVYLQMNSLNPEDTAVYYCAADDIHYVIHAYYSSGVDYWGQGTQVTVSS”, for which the “polyreactivity (PSR sort gate)” value is given as “low polyreactivity”.
“QVQLVESGGGLVQAGGSLRLSCAASGRTFYVYDMGWYRQAPRKEREFVATITARGGSTSYADSVKGRFTISRDNAKNTVYLQMNILKPEDTAVYYCNADIHVYPTRTRYYYWGQGTQVTVSS”: the “polyreactivity (PSR sort gate)” value was “low polyreactivity”.
With “QVQLVESGGGLVQAGGSLRLSCAASGRTFYVYTMGWYRQAPGKERELVAAITTGGSTNYADSVKGRFTISRDNAKNTVYLQMNSLKPEDTAVYYCAARVSTVFKRYYYWGQGTQVTVSS” the entry was “high polyreactivity”.
With “QVQLVESGGGLVQAGGSLRLSCAASGRTFYVYTMGWYRQAPGKERELVAANTSGGSTNYADSVKGRFTISRDNAKNTVYLQMNSLKPEDTAVYYCAARVSTVFKRYYYWGQGTQVTVSS” the entry was “high polyreactivity”; with “QVQLVESGGGLVQAGGSLRLSCAASGRTFYWYAMGWYRQAPGKERELVAAISSGGSTYYADSVKGRFTISRDNAKNTVYLQMNSLKPEDTAVYYCAAVTPSGAHRSAYHPISDYWGQGTQVTVSS”, “low polyreactivity”; with “QVQLVESGGGLVQAGGSLRLSCAASGRTFYYAMGWYRQAPGKERYADSVKGRVTISRDNAKNTVYLQMNSLKPEETAVYYCAAKVPEPPSLDESDYWGQGTQVTVSS”, “low polyreactivity”.
Take “QVQLVESGGGLVQAGGSLRLSCAASGRTFYYNAKGWYRQAPGKERELVARITSSGGSTYYADSVKGRFTISRDTSKNTVFLQMNSLKPEDTAVYYCAAGRSRYLWFGRDFDYWGQGTQVTVSS”: the “polyreactivity (PSR sort gate)” value is given as “low polyreactivity”.
As to “QVQLVESGGGLVQAGGSLRLSCAASGRTFYYNGMGWYRQAPGKERELVATITNGGSTNYADSVKGRFTISRDNAKITVYLQMNSLKPEETAVYYCAKTLASDCYDYWGQGTQVTVSS”, the “polyreactivity (PSR sort gate)” value is “low polyreactivity”.
